Reference: patent US20190359687A1 (Bayer, published 2019)
One block for each binder: values may come before it.

How the values were obtained:
[1] = molecular target: T1, human glycophorin A on human red blood cells (human, UniProt P02724 20-150); assay: partition to human RBC, vWF deficient plasma, 1 min
T1 construct: whole, on cells; also called human GPA; huGPA
T1 sequence (looked up): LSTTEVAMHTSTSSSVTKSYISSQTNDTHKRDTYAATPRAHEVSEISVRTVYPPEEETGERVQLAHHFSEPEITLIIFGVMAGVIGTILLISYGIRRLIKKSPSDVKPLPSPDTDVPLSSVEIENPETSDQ

[2] = molecular target: T1, human glycophorin A on human red blood …; assay: partition to human RBC, vWF deficient plasma, 5 min
[3] = molecular target: T1, human glycophorin A on human red blood …; assay: partition to human RBC, vWF deficient plasma, 15 min
[4] = molecular target: T1, human glycophorin A on human red blood …; assay: partition to human RBC, vWF deficient plasma, 30 min
[5] = molecular target: T1, human glycophorin A on human red blood …; assay: partition to human RBC, vWF deficient plasma, 60 min
[6] = molecular target: T1, human glycophorin A on human red blood …; assay: partition to human RBC, vWF deficient plasma, 120 min
[7] = molecular target: T2, Cynomolgus monkey glycophorin A on Cynomolgus monkey red blood cells (Cynomolgus monkey); assay: partition to Cyno RBC, human HemA plasma, 120 min;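 also: FVIII fusion spiked at 1 IU/mL into RBC suspension at whole-blood density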
T2 construct: whole, on cells; also called Cyno GPA; Cyno RBC

[8] = molecular target: T3, glycophorin A peptide GP5 (human, biotin at the N-terminus); assay: Octet, GP5 peptide on the probe, fusion protein in solution, 1:1 fit
T3 construct: Residues 42 to 61 of the human glycophorin A extracellular domain
T3 peptide: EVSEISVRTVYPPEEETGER

[9] = molecular target: T4, purified human glycophorin A protein (Sigma, cat # G5017) (human, UniProt P02724 20-150); assay: ELISA, native hGPA
T4 construct: mature; also called Sigma hGPA; Sigma GPA
T4 sequence (looked up): T1 sequence (looked up)

[10] = molecular target: T5, human glycophorin A in the red blood cell membrane (human, UniProt P02724 20-150); assay: ELISA, human RBC membranes;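 also: antibodies bound to isolated human red blood cell membrane ghosts coated on 96-well plates, tested 1.5 h at room temperature, bound antibody quantified with a detection antibody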
T5 construct: whole, on cells; used for intact RBC, isolated RBC membranes and transfected cells; the assay field tells which; also called GPA; hGPA
T5 sequence (looked up): T1 sequence (looked up)

[11] = molecular target: T6, recombinant human GPA ectodomain (human, UniProt P02724 20-91); assay: ELISA, rec hGPA ectodomain
T6 construct: also called recombinant hGPA ECD; recGPA
T6 sequence: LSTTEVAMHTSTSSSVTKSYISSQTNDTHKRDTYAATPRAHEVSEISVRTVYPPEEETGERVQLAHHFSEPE

[12] = molecular target: T5, human glycophorin A in the red blood …; assay: SPR (Biacore), single cycle kinetics, human RBC membranes on L1 sensor, Fab flowed over
Procedure: Kinetic analysis of the antibody binding to human red blood cell membranes was also performed using surface plasmon resonance (SPR) using a Biacore instrument. In this assay membranes prepared from human red blood cells were attached to a L1 sensor matrix and antibodies were flowed over the RBC membranes.

percentage bound to human RBC [1]: 51.4%
percentage bound to human RBC [2]: 78.4%
percentage bound to human RBC [3]: 82.9%
percentage bound to human RBC [4]: 85.9%
percentage bound to human RBC [5]: 86.2%
percentage bound to human RBC [6]: 84.2%
B1: TPP-9161 FVIII-scFv fusion protein (other)
chain: ATRRYYLGAVELSWDYMQSDLGELPVDARFPPRVPKSFPFNTSVVYKKTLFVEFTDHLFNIAKPRPPWMGLLGPTIQAEVYDTVVITLKNMASHPVSLHAVGVSYWKASEGAEYDDQTSQREKEDDKVFPGGSHTYVWQVLKENGPMASDPLCLTYSYLSHVDLVKDLNSGLIGALLVCREGSLAKEKTQTLHKFILLFAVFDEGKSWHSETKNSLMQDRDAASARAWPKMHTVNGYVNRSLPGLIGCHRKSVYWHVIGMGTTPEVHSIFLEGHTFLVRNHRQASLEISPITFLTAQTLLMDLGQFLLFCHISSHQHDGMEAYVKVDSCPEEPQLRMKNNEEAEDYDDDLTDSEMDVVRFDDDNSPSFIQIRSVAKKHPKTWVHYIAAEEEDWDYAPLVLAPDDRSYKSQYLNNGPQRIGRKYKKVRFMAYTDETFKTREAIQHESGILGPLLYGEVGDTLLIIFKNQASRPYNIYPHGITDVRPLYSRRLPKGVKHLKDFPILPGEIFKYKWTVTVEDGPTKSDPRCLTRYYSSFVNMERDLASGLIGPLLICYKESVDQRGNQIMSDKRNVILFSVFDENRSWYLTENIQRFLPNPAGVQLEDPEFQASNIMHSINGYVFDSLQLSVCLHEVAYWYILSIGAQTDFLSVFFSGYTFKHKMVYEDTLTLFPFSGETVFMSMENPGLWILGCHNSDFRNRGMTALLKVSSCDKNTGDYYEDSYEDISAYLLSKNNAIEPRSFSQNGGGGSTGGTGGSSGGGTGSGGGGTGGSGGTDIQLTQSPSFLSASVGDRVTITCRASSSVRYIYWFQQKPGKAPKLLIYATSFRQSGVPSRFSGSGSGTEYTLTISSLQPEDFATYYCHQRNSFPYTFGQGTKLEIKGGGGSGGGGSGGGGSGGGGSEVQLVQSGAEVKKPGASVKVSCKASGYTFTTYAIHWVRQAPGQGLEWMGYINPSSGYTRYNPKFKGRVTMTRDKSTSTAYMELRSLRSDDTAVYYCWTGTRDYWGQGTTVTVSSGGGGSQNPPVLKRHQREITDENQSPRSFQKKTRHYFIAAVERLWDYGMSSSPHVLRNRAQSGSVPQFKKVVFQEFTDGSFTQPLYRGELNEHLGLLGPYIRAEVEDNIMVTFRNQASRPYSFYSSLISYEEDQRQGAEPRKNFVKPNETKTYFWKVQHHMAPTKDEFDCKAWAYFSDVDLEKDVHSGLIGPLLVCHTNTLNPAHGRQVTVQEFALFFTIFDETKSWYFTENMERNCRAPCNIQMEDPTFKENYRFHAINGYIMDTLPGLVMAQDQRIRWYLLSMGSNENIHSIHFSGHVFTVRKKEEYKMALYNLYPGVFETVEMLPSKAGIWRVECLIGEHLHAGMSTLFLVYSNKCQTPLGMASGHIRDFQITASGQYGQWAPKLARLHYSGSINAWSTKEPFSWIKVDLLAPMIIHGIKTQGARQKFSSLYISQFIIMYSLDGKKWQTYRGNSTGTLMVFFGNVDSSGIKHNIFNPPIIARYIRLHPTHYSIRSTLRMELMGCDLNSCSMPLGMESKAISDAQITASSYKTNMFATWSPSKARLHLQGRSNAWRPQVNNPKEWLQVDFQKTMKVTGVTTQGVKSLLTSMYVKEFLISSSQDGHQWTLFFQNGKVKVFQGNQDSFTPVVNSLDPPLLTRYLRIHPQSWVHQIALRMEVLGCEAQDLY
notes: also called PPB 7644

% bound to Cyno RBC [7]: 62.8%
percentage bound to human RBC [1]: 44.1%
percentage bound to human RBC [2]: 87.4%
percentage bound to human RBC [3]: 89.9%
percentage bound to human RBC [4]: 91.2%
percentage bound to human RBC [5]: 80.3%
percentage bound to human RBC [6]: 92.3%
Kd [8]: 1.27 nM
koff [8]: 0.00066 s⁻¹
kon [8]: 520000 M⁻¹ s⁻¹
B2: TPP-9423 FVIII-scFv fusion protein (other)
chain: DIQLTQSPSFLSASVGDRVTITCRASSSVRYIYWFQQKPGKAPKLLIYATSFRQSGVPSRFSGSGSGTEYTLTISSLQPEDFATYYCHQRNSFPYTFGQGTKLEIKGGGGSGGGGSGGGGSGGGGSEVQLVQSGAEVKKPGASVKVSCKASGYTFTTYAIHWVRQAPGQGLEWMGYINPSSGYTRYNPKFKGRVTMTRDKSTSTAYMELRSLRSDDTAVYYCWTGTRDYWGQGTTVTVSSGGGSGGGGSGLVPRGSGGGSGGGGSGATRRYYLGAVELSWDYMQSDLGELPVDARFPPRVPKSFPFNTSVVYKKTLFVEFTDHLFNIAKPRPPWMGLLGPTIQAEVYDTVVITLKNMASHPVSLHAVGVSYWKASEGAEYDDQTSQREKEDDKVFPGGSHTYVWQVLKENGPMASDPLCLTYSYLSHVDLVKDLNSGLIGALLVCREGSLAKEKTQTLHKFILLFAVFDEGKSWHSETKNSLMQDRDAASARAWPKMHTVNGYVNRSLPGLIGCHRKSVYWHVIGMGTTPEVHSIFLEGHTFLVRNHRQASLEISPITFLTAQTLLMDLGQFLLFCHISSHQHDGMEAYVKVDSCPEEPQLRMKNNEEAEDYDDDLTDSEMDVVRFDDDNSPSFIQIRSVAKKHPKTWVHYIAAEEEDWDYAPLVLAPDDRSYKSQYLNNGPQRIGRKYKKVRFMAYTDETFKTREAIQHESGILGPLLYGEVGDTLLIIFKNQASRPYNIYPHGITDVRPLYSRRLPKGVKHLKDFPILPGEIFKYKWTVTVEDGPTKSDPRCLTRYYSSFVNMERDLASGLIGPLLICYKESVDQRGNQIMSDKRNVILFSVFDENRSWYLTENIQRFLPNPAGVQLEDPEFQASNIMHSINGYVFDSLQLSVCLHEVAYWYILSIGAQTDFLSVFFSGYTFKHKMVYEDTLTLFPFSGETVFMSMENPGLWILGCHNSDFRNRGMTALLKVSSCDKNTGDYYEDSYEDISAYLLSKNNAIEPRSFSQNDENQSPRSFQKKTRHYFIAAVERLWDYGMSSSPHVLRNRAQSGSVPQFKKVVFQEFTDGSFTQPLYRGELNEHLGLLGPYIRAEVEDNIMVTFRNQASRPYSFYSSLISYEEDQRQGAEPRKNFVKPNETKTYFWKVQHHMAPTKDEFDCKAWAYFSDVDLEKDVHSGLIGPLLVCHTNTLNPAHGRQVTVQEFALFFTIFDETKSWYFTENMERNCRAPCNIQMEDPTFKENYRFHAINGYIMDTLPGLVMAQDQRIRWYLLSMGSNENIHSIHFSGHVFTVRKKEEYKMALYNLYPGVFETVEMLPSKAGIWRVECLIGEHLHAGMSTLFLVYSNKCQTPLGMASGHIRDFQITASGQYGQWAPKLARLHYSGSINAWSTKEPFSWIKVDLLAPMIIHGIKTQGARQKFSSLYISQFIIMYSLDGKKWQTYRGNSTGTLMVFFGNVDSSGIKHNIFNPPIIARYIRLHPTHYSIRSTLRMELMGCDLNSCSMPLGMESKAISDAQITASSYKTNMFATWSPSKARLHLQGRSNAWRPQVNNPKEWLQVDFQKTMKVTGVTTQGVKSLLTSMYVKEFLISSSQDGHQWTLFFQNGKVKVFQGNQDSFTPVVNSLDPPLLTRYLRIHPQSWVHQIALRMEVLGCEAQDLY
notes: also called 9423 (F2196K)

binding by ELISA relative to parental [9]: 1.45
binding by ELISA relative to parental [10]: 1.64
binding by ELISA relative to parental [11]: 1.7
Kd [12]: 34 nM
koff [12]: 0.021 s⁻¹
kon [12]: 610000 M⁻¹ s⁻¹
B3: TPP-5350 (Fab, V domains shown)
VH: EVQLVQSGAEVKKPGASVKVSCKASGYTFTTYTIHWVRQAPGQGLEWIGYINPSSDYTRYNPKFKDRVTLTTDKSTSTAYMELRSLRSDDTAVYYCQTGTRDYWGQGTTVTVSS
VL: DIQLTQSPSFLSASVGDRVTITCSAASSVSYIYWFQQKPGKAPKLLIYSTSTLQSGVPSRFSGSGSGTEYTLTISSLQPEDFATYYCHQRNSFPFTFGQGTKLEIKR
notes: also called VL: (P54Q)
